Source: patent publication US20170114111A1 (UNIVERSITY OF CAPE TOWN, published 2017)

Target: CD64 (human, UniProt P12314 16-374)
Assay: cell-based or functional assay

Chain of CD64 (P12314 16-374): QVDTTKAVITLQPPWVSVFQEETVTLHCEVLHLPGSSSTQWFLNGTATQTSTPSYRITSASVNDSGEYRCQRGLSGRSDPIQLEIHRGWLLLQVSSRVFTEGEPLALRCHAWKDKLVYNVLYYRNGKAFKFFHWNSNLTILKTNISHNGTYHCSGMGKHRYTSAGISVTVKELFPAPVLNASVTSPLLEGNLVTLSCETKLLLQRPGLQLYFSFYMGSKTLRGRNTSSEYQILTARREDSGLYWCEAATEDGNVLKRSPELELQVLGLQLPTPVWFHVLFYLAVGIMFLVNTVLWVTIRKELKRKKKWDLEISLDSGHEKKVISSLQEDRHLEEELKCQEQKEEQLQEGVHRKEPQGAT

B1: H22-Ang GGRR/QGmut (other)
chain: DAAQPAMAQVQLVESGGGVVQPGRSLRLSCSSSGFIFSDNYMYWVRQAPGKGLEWVATISDGGSYTYYPDSVKGRFTISRDNSKNTLFLQMDSLRPEDTGVYFCARGYYRYEGAMDYWGQGTPVTVSSGGGGSGGGGSGGGGSDIQLTQSPSSLSASVGDRVTITCKSSQSVLYSSNQKNYLAWYQQKPGKAPKLLIYWASTRESGVPSRFSGSGSGTDFTFTISSLQPEDIATYYCHQYLSSWTFGQGTKLEIKAAALESRQDNSRYTHFLTQHYDAKPQGRDDRYCESIMRRRGLTSPCKDINTFIHGNKRSIKAICENKNGNPHRENLRISKSSFQVTTCKLHRRSPWPPCQYRATAGFRNVVVACENGLPVHLDGSIFRRPAEHEFRGGPEQKLISEEDLNSAVDHHHHHH
B1 was tested, and the “IC50, XTT viability assay on IFNγ-stimulated CD64+ HL-60 cells” value was 4.2 nM, the “IC50, XTT viability assay on activated human Mφ” value was 0.075 nM and the “IC50, XTT viability assay on hIFNγ-stimulated HL-60 cells” value was 4.3 nM.
